Substitutions are numbered along the chain they refer to.
B1: GpH7-A5/GpH7-B3 variant A330_08L/GpL16-k0 (antibody, human IgG1, kappa)
heavy 1: not shown
heavy 2: not shown
light: DIVMTQSPLSLPVTPGEPASISCQASESLVHSNRNTYLHWYLQKPGQSPQLLIYKVSNRFSGVPDRFSGSGSGTDFTLKISRVEAEDVGVYYCSQNTHVPPTFGQGTKVEIERTVAAPSVFIFPPSDEQLKSGTASVVCLLNNFYPREAKVQWKVDNALQSGNSQESVTEQDSKDSTYSLSSTLTLSKADYEKHKVYACEVTHQGLSSPVTKSFNRGEC
notes: He Ab: heterodimerized IgG1, one H chain mutated
B2: GpH7-A5/GpH7-B3 variant A330_09D/GpL16-k0 (antibody, human IgG1, kappa)
heavy 1: not shown
heavy 2: not shown
light: B1 light
notes: as for B1
B3: GpH7-A5/GpH7-B3 variant A330_10E/GpL16-k0 (antibody, human IgG1, kappa)
heavy 1: not shown
heavy 2: not shown
light: B1 light
notes: as for B1
B4: GpH7-A5/GpH7-B3 variant A330_14T/GpL16-k0 (antibody, human IgG1, kappa)
heavy 1: not shown
heavy 2: not shown
light: B1 light
notes: as for B1
B5: GpH7-A5/GpH7-B3 variant A330_16H/GpL16-k0 (antibody, human IgG1, kappa)
heavy 1: not shown
heavy 2: not shown
light: B1 light
notes: as for B1
B6: GpH7-A5/GpH7-B3 variant A330_18N/GpL16-k0 (antibody, human IgG1, kappa)
heavy 1: not shown
heavy 2: not shown
light: B1 light
notes: as for B1
B7: GpH7-A5/GpH7-B3 variant A330_19Q/GpL16-k0 (antibody, human IgG1, kappa)
heavy 1: not shown
heavy 2: not shown
light: B1 light
notes: as for B1
B8: GpH7-A5/GpH7-B3 variant A330_20W/GpL16-k0 (antibody, human IgG1, kappa)
heavy 1: not shown
heavy 2: not shown
light: B1 light
notes: as for B1
B9: GpH7-A5/GpH7-B3 variant K326_01G/GpL16-k0 (antibody, human IgG1, kappa)
heavy 1: not shown
heavy 2: not shown
light: B1 light
notes: as for B1
B10: GpH7-A5/GpH7-B3 variant K326_02A/GpL16-k0 (antibody, human IgG1, kappa)
heavy 1: not shown
heavy 2: not shown
light: B1 light
notes: as for B1
B11: GpH7-A5/GpH7-B3 variant K326_03V/GpL16-k0 (antibody, human IgG1, kappa)
heavy 1: not shown
heavy 2: not shown
light: B1 light
notes: as for B1
B12: GpH7-A5/GpH7-B3 variant K326_04F/GpL16-k0 (antibody, human IgG1, kappa)
heavy 1: not shown
heavy 2: not shown
light: B1 light
notes: as for B1
B13: GpH7-A5/GpH7-B3 variant K326_05P/GpL16-k0 (antibody, human IgG1, kappa)
heavy 1: not shown
heavy 2: not shown
light: B1 light
notes: as for B1
B14: GpH7-A5/GpH7-B3 variant K326_06M/GpL16-k0 (antibody, human IgG1, kappa)
heavy 1: not shown
heavy 2: not shown
light: B1 light
notes: as for B1
B15: GpH7-A5/GpH7-B3 variant K326_07I/GpL16-k0 (antibody, human IgG1, kappa)
heavy 1: not shown
heavy 2: not shown
light: B1 light
notes: as for B1
B16: GpH7-A5/GpH7-B3 variant K326_08L/GpL16-k0 (antibody, human IgG1, kappa)
heavy 1: not shown
heavy 2: not shown
light: B1 light
notes: as for B1
B17: GpH7-A5/GpH7-B3 variant K326_09D/GpL16-k0 (antibody, human IgG1, kappa)
heavy 1: not shown
heavy 2: not shown
light: B1 light
notes: as for B1
B18: GpH7-A5/GpH7-B3 variant K326_10E/GpL16-k0 (antibody, human IgG1, kappa)
heavy 1: not shown
heavy 2: not shown
light: B1 light
notes: as for B1
B19: GpH7-A5/GpH7-B3 variant K326_12R/GpL16-k0 (antibody, human IgG1, kappa)
heavy 1: not shown
heavy 2: not shown
light: B1 light
notes: as for B1
B20: GpH7-A5/GpH7-B3 variant K326_13S/GpL16-k0 (antibody, human IgG1, kappa)
heavy 1: not shown
heavy 2: not shown
light: B1 light
notes: as for B1
B21: GpH7-A5/GpH7-B3 variant K326_14T/GpL16-k0 (antibody, human IgG1, kappa)
heavy 1: not shown
heavy 2: not shown
light: B1 light
notes: as for B1
B22: GpH7-A5/GpH7-B3 variant K326_15Y/GpL16-k0 (antibody, human IgG1, kappa)
heavy 1: not shown
heavy 2: not shown
light: B1 light
notes: as for B1
B23: GpH7-A5/GpH7-B3 variant K326_16H/GpL16-k0 (antibody, human IgG1, kappa)
heavy 1: not shown
heavy 2: not shown
light: B1 light
notes: as for B1
B24: GpH7-A5/GpH7-B3 variant K326_18N/GpL16-k0 (antibody, human IgG1, kappa)
heavy 1: not shown
heavy 2: not shown
light: B1 light
notes: as for B1
B25: GpH7-A5/GpH7-B3 variant K326_19Q/GpL16-k0 (antibody, human IgG1, kappa)
heavy 1: not shown
heavy 2: not shown
light: B1 light
notes: as for B1
B26: GpH7-A5/GpH7-B3 variant K326_20W/GpL16-k0 (antibody, human IgG1, kappa)
heavy 1: not shown
heavy 2: not shown
light: B1 light
notes: as for B1
B27: GpH7-A5/GpH7-B3 variant L328_02A/GpL16-k0 (antibody, human IgG1, kappa)
heavy 1: not shown
heavy 2: not shown
light: B1 light
notes: as for B1
B28: GpH7-A5/GpH7-B3 variant L328_03V/GpL16-k0 (antibody, human IgG1, kappa)
heavy 1: not shown
heavy 2: not shown
light: B1 light
notes: as for B1
B29: GpH7-A5/GpH7-B3 variant L328_04F/GpL16-k0 (antibody, human IgG1, kappa)
heavy 1: not shown
heavy 2: not shown
light: B1 light
notes: as for B1

Target: T1, FcγRIa (human, UniProt P12314 16-292)
T1 construct: extracellular domain; also called 1a
Assay: SPR, relative to GpH7-A5/GpH7-B3/GpL16-k0 =100

T1 sequence (P12314 other isoform, or with tags, fused parts or gaps): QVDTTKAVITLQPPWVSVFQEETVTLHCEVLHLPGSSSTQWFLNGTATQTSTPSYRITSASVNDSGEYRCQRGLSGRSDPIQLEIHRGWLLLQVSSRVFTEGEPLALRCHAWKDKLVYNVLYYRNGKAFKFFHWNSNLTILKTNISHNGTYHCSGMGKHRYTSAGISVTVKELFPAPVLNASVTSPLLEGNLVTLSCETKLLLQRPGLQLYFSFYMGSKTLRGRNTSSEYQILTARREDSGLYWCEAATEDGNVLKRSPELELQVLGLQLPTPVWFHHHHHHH

Compared with B1, B2 is higher in “He/Con 1a” value: 110% for the first, 112% for the second.

Compared with B3, B4 is lower in “He/Con 1a” value: 111% for the first, 108% for the second.

Going from B5 to B6, the “He/Con 1a” value rises from 109% to 110%.

Going from B7 to B8, the “He/Con 1a” value rises from 109% to 111%.

Compared with B9, B10 is higher in “He/Con 1a” value: 106% for the first, 107% for the second.

B11 and B12 are the same in “He/Con 1a” value: 107% for the first, 107% for the second.

First: B13
Second: B14
The “He/Con 1a” value of the first is lower: 106% for the first, 108% for the second.

First: B15
Second: B16
The “He/Con 1a” value of the first is higher: 106% for the first, 105% for the second.

B17 and B18 are the same in “He/Con 1a” value: 109% for the first, 109% for the second.

Going from B19 to B20, the “He/Con 1a” value rises from 105% to 106%.

Compared with B21, B22 is higher in “He/Con 1a” value: 109% for the first, 111% for the second.

Going from B23 to B24, the “He/Con 1a” value rises from 109% to 110%.

B25 and B26 are the same in “He/Con 1a” value: 108% for the first, 108% for the second.

Going from B27 to B28, the “He/Con 1a” value rises from 101% to 103%.

With B29 the “He/Con 1a” value was 100%.

Target: T2, FcγRIIa(H) (human, UniProt P12318 34-217)
T2 construct: extracellular domain; also called 2aH
T2 sequence: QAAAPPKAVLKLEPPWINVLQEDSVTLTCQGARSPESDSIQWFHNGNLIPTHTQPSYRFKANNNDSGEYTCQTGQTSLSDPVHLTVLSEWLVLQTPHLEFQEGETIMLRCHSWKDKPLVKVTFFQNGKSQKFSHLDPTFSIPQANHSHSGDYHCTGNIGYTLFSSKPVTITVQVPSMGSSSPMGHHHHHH
Assay: SPR, relative to GpH7-A5/GpH7-B3/GpL16-k0 =100

Going from B1 to B2, the “He/Con 2aH” value falls from 94.7% to 67.8%.

Going from B3 to B4, the “He/Con 2aH” value rises from 87.7% to 102%.

First: B5
Second: B6
The “He/Con 2aH” value of the first is higher: 110% for the first, 88.3% for the second.

First: B7
Second: B8
The “He/Con 2aH” value of the first is higher: 110% for the first, 93.8% for the second.

Compared with B9, B10 is higher in “He/Con 2aH” value: 105% for the first, 110% for the second.

B11 and B12 are the same in “He/Con 2aH” value: 101% for the first, 101% for the second.

First: B13
Second: B14
The “He/Con 2aH” value of the first is lower: 103% for the first, 108% for the second.

Going from B15 to B16, the “He/Con 2aH” value falls from 104% to 96.5%.

Compared with B17, B18 is lower in “He/Con 2aH” value: 115% for the first, 106% for the second.

First: B19
Second: B20
The “He/Con 2aH” value of the first is lower: 105% for the first, 110% for the second.

Compared with B21, B22 is lower in “He/Con 2aH” value: 119% for the first, 102% for the second.

Going from B23 to B24, the “He/Con 2aH” value rises from 102% to 113%.

First: B25
Second: B26
The “He/Con 2aH” value of the first is higher: 106% for the first, 86.7% for the second.

Going from B27 to B28, the “He/Con 2aH” value falls from 154% to 116%.

B29 was tested, and the “He/Con 2aH” value was 84.9%.

Target: T3, FcγRIIb (human, UniProt P31994 43-217)
T3 construct: extracellular domain; also called 2b
T3 sequence: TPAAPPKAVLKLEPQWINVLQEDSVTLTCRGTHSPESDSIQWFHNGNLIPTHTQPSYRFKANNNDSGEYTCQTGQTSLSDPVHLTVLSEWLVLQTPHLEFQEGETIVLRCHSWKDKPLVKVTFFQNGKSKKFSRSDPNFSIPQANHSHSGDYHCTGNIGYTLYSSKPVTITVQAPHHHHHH
Assay: SPR, relative to GpH7-A5/GpH7-B3/GpL16-k0 =100

Compared with B1, B2 is lower in “He/Con 2b” value: 79.6% for the first, 62.8% for the second.

First: B3
Second: B4
The “He/Con 2b” value of the first is lower: 79.2% for the first, 87.9% for the second.

Going from B5 to B6, the “He/Con 2b” value falls from 99% to 71.9%.

Going from B7 to B8, the “He/Con 2b” value falls from 103% to 86%.

First: B9
Second: B10
The “He/Con 2b” value of the first is lower: 119% for the first, 156% for the second.

Going from B11 to B12, the “He/Con 2b” value falls from 196% to 174%.

First: B13
Second: B14
The “He/Con 2b” value of the first is lower: 141% for the first, 185% for the second.

First: B15
Second: B16
The “He/Con 2b” value of the first is higher: 223% for the first, 198% for the second.

Going from B17 to B18, the “He/Con 2b” value rises from 216% to 224%.

Going from B19 to B20, the “He/Con 2b” value rises from 100% to 139%.

Going from B21 to B22, the “He/Con 2b” value rises from 168% to 179%.

Compared with B23, B24 is lower in “He/Con 2b” value: 133% for the first, 118% for the second.

Going from B25 to B26, the “He/Con 2b” value rises from 156% to 166%.

Compared with B27, B28 is lower in “He/Con 2b” value: 180% for the first, 157% for the second.

With B29 the “He/Con 2b” value was 273%.

Target: T4, FcγRIIa(R) (human, UniProt P12318 34-217)
T4 construct: extracellular domain; also called 2aR
T4 sequence: T2 sequence with H134R
Assay: SPR, relative to GpH7-A5/GpH7-B3/GpL16-k0 =100

Compared with B1, B2 is lower in “He/Con 2aR” value: 99.7% for the first, 79.5% for the second.

Going from B3 to B4, the “He/Con 2aR” value rises from 97.2% to 107%.

Going from B5 to B6, the “He/Con 2aR” value falls from 111% to 91%.

Going from B7 to B8, the “He/Con 2aR” value falls from 117% to 97.6%.

First: B9
Second: B10
The “He/Con 2aR” value of the first is lower: 108% for the first, 125% for the second.

First: B11
Second: B12
The “He/Con 2aR” value of the first is higher: 135% for the first, 129% for the second.

Compared with B13, B14 is higher in “He/Con 2aR” value: 118% for the first, 132% for the second.

First: B15
Second: B16
The “He/Con 2aR” value of the first is higher: 141% for the first, 131% for the second.

B17 and B18 are the same in “He/Con 2aR” value: 142% for the first, 142% for the second.

Going from B19 to B20, the “He/Con 2aR” value rises from 98.6% to 119%.

Compared with B21, B22 is higher in “He/Con 2aR” value: 128% for the first, 131% for the second.

Going from B23 to B24, the “He/Con 2aR” value falls from 115% to 110%.

First: B25
Second: B26
The “He/Con 2aR” value of the first is lower: 124% for the first, 125% for the second.

B27 and B28 are the same in “He/Con 2aR” value: 150% for the first, 150% for the second.

For B29, the “He/Con 2aR” value was 177%.

Reference: US20260167699A1 (Chugai, published 2026)
